Measured values: patent publication US20180258140A1, “NEW DODECAPEPTIDES AND MICROCAPSULES FUNCTIONALISED WITH THEM TARGETED TO FIBROBLASTS” (Infinitec Activos, S.L., priority 2015, published 2018)
*: point of attachment. Palmitoyl = CCCCCCCCCCCCCCCC(=O)*

Columns and labels:
FGFR2 Kinase = FGFR2 Kinase (Homo sapiens, UniProt P21802); assay: FGFR2 kinase inhibition; format: biochemical; conditions: percent inhibition of control enzyme activity; test concentration not given
Experimental: [The source words this procedure for another target and reports this target under the same test.] Evaluation of the effects of the dodecapeptides of the invention on the activity of the human FGFR1 kinase were quantified by measuring the phosphorylation of the substrate Ulight-CAGAGAIETDKEYYTVKD (JAK1) using a human recombinant enzyme expressed in insect cells and the LANCE® detection method using the protocol described below:
The peptide to be tested, the reference compound or water (control) are mixed with the enzyme (0.252 ng) in a buffer containing 40 mM Hepes/Tris (pH 7.4), 0.8 mM EGTA/Tris, 8 mM MgCl2, 1.6 mM DTT and 0.008% Tween 20 (For control basal measurements, the enzyme is omitted from the reaction mixture). Thereafter, the reaction is initiated by adding 100 nM of the substrate Ulight-CAGAGAIETDKEYYTVKD (SEQ ID NO: 13) (JAK-1 peptide) and 100 μM ATP, and the mixture is incubated for 60 min at room temperature. Following incubation, the reaction is stopped by adding 13 mM EDTA. After 5 min, the anti-phospho-PT66 antibody labeled with europium chelate (EU-W1024-labeled Anti-Phosphotyrosine Antibody PT66, from Perkin Elmer) is added. After 60 more min, the fluorescence transfer is measured at λex=337 nm, λem=620 nm and λem=665 nm using a microplate reader (Envision, Perkin Elmer).
The enzyme activity is determined by dividing the signal measured at 665 nm by that measured at 620 nm (ratio). The results are expressed as a percent inhibition of the control enzyme activity.
The standard inhibitory reference compound is staurosporine, which is tested in each experiment at several concentrations to obtain an inhibition curve from which its IC50 value is calculated.
Results showing an inhibition (or stimulation for assays run in basal conditions) higher than 20% are considered to represent significant effects of the peptides of the invention.

human FGFR1 kinase = human FGFR1 kinase (human, UniProt P11362 398-822, limits assumed); assay: cell-based or functional assay
FGFR3 Kinase = FGFR3 Kinase (UniProt P22607 436-806); assay: cell-based or functional assay
FGFR4 Kinase = FGFR4 Kinase (UniProt P22455 460-802, limits assumed); assay: cell-based or functional assay
Chain of FGFR4 Kinase (P22455 460-802 limits assumed): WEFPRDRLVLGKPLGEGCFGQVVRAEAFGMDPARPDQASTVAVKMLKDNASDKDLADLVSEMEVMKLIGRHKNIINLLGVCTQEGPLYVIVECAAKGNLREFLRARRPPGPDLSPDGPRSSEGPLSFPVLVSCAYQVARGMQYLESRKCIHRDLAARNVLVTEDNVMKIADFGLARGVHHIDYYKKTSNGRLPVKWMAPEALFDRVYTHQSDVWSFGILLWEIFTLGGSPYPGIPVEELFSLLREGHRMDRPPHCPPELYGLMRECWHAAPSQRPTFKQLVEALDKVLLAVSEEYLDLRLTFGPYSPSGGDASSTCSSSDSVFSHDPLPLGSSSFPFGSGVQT

Chain of FGFR3 Kinase (P22607 436-806 limits assumed): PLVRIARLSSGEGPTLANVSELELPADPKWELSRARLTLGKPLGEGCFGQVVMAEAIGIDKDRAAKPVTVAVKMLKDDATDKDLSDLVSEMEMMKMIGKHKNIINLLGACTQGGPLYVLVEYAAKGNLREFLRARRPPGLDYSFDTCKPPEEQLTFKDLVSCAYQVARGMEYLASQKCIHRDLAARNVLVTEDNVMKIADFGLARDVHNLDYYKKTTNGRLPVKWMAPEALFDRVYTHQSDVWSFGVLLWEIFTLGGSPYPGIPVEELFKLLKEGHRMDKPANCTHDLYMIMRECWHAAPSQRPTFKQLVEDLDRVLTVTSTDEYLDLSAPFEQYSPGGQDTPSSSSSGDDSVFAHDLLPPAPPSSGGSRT
Chain of FGFR2 Kinase (P21802 22-821): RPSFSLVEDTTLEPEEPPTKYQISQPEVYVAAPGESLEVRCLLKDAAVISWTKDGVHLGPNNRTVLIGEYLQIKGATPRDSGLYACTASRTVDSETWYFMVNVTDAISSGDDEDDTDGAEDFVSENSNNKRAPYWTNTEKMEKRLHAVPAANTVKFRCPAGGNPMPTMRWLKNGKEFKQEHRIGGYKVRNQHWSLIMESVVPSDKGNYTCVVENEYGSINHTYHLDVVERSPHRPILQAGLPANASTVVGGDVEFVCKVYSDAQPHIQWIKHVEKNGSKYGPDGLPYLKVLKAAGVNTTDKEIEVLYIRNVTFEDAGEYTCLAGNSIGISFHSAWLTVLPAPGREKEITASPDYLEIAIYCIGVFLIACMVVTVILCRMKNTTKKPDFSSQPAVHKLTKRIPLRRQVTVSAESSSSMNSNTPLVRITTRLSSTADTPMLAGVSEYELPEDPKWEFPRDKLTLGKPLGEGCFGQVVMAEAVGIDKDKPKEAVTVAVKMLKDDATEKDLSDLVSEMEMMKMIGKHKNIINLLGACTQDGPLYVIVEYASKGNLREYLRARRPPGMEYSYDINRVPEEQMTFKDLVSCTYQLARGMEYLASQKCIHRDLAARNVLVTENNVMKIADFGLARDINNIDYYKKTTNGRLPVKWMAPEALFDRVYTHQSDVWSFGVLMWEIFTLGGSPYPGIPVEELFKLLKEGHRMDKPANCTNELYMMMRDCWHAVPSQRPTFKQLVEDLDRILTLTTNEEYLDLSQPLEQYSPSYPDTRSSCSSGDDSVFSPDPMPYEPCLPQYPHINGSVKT
Chain of human FGFR1 kinase (P11362 398-822 limits assumed): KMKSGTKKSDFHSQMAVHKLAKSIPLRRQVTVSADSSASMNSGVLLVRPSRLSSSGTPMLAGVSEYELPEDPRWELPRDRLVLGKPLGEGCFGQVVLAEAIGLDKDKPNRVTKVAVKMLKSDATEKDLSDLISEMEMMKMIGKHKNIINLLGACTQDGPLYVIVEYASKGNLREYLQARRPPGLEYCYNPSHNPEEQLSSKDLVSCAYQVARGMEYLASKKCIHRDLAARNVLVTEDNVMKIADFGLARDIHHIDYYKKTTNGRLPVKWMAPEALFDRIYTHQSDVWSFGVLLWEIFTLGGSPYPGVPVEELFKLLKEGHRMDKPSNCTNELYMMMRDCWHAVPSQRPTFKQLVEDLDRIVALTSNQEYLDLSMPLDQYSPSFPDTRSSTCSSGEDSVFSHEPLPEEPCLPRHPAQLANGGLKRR

Row | FGFR1 Kinase % Inhibition (human FGFR1 kinase) [%] | FGFR3 Kinase % Inhibition (FGFR3 Kinase) [%] | FGFR4 Kinase % Inhibition (FGFR4 Kinase) [%] | Molecule | FGFR2 Kinase % Inhibition (FGFR2 Kinase) [%]
1 | 0 | 46.4 | 42.3 | Palmitoyl-KFNLPLGNYKKA-NH2 (SMILES CCCCCCCCCCCCCCCC(=O)N[C@@H](CCCCN)C(=O)N[C@@H](Cc1ccccc1)C(=O)N[C@@H](CC(N)=O)C(=O)N[C@@H](CC(C)C)C(=O)N1CCC[C@H]1C(=O)N[C@@H](CC(C)C)C(=O)NCC(=O)N[C@@H](CC(N)=O)C(=O)N[C@@H](Cc1ccc(O)cc1)C(=O)N[C@@H](CCCCN)C(=O)N[C@@H](CCCCN)C(=O)N[C@@H](C)C(N)=O) [Peptide 12: Palm-Lys-Phe-Asn-Leu-Pro-Leu-Gly-Asn-Tyr-Lys-Lys-Ala-NH2] | 
2 | 0 | 0 | 0 | Palmitoyl-KFNLPLGNYAKP-NH2 (SMILES CCCCCCCCCCCCCCCC(=O)N[C@@H](CCCCN)C(=O)N[C@@H](Cc1ccccc1)C(=O)N[C@@H](CC(N)=O)C(=O)N[C@@H](CC(C)C)C(=O)N1CCC[C@H]1C(=O)N[C@@H](CC(C)C)C(=O)NCC(=O)N[C@@H](CC(N)=O)C(=O)N[C@@H](Cc1ccc(O)cc1)C(=O)N[C@@H](C)C(=O)N[C@@H](CCCCN)C(=O)N1CCC[C@H]1C(N)=O) [Peptide 10: Palm-Lys-Phe-Asn-Leu-Pro-Leu-Gly-Asn-Tyr-Ala-Lys-Pro-NH2] | 
3 | 0 | 19.3 | 0 | Palmitoyl-KFNLPLGNYKAP-NH2 (SMILES CCCCCCCCCCCCCCCC(=O)N[C@@H](CCCCN)C(=O)N[C@@H](Cc1ccccc1)C(=O)N[C@@H](CC(N)=O)C(=O)N[C@@H](CC(C)C)C(=O)N1CCC[C@H]1C(=O)N[C@@H](CC(C)C)C(=O)NCC(=O)N[C@@H](CC(N)=O)C(=O)N[C@@H](Cc1ccc(O)cc1)C(=O)N[C@@H](CCCCN)C(=O)N[C@@H](C)C(=O)N1CCC[C@H]1C(N)=O) [Peptide 11: Palm-Lys-Phe-Asn-Leu-Pro-Leu-Gly-Asn-Tyr-Lys-Ala-Pro-NH2] | 
4 | 15.7 | 91.6 | 92.5 | Palmitoyl-KFNLPLGNAKKP-NH2 (SMILES CCCCCCCCCCCCCCCC(=O)N[C@@H](CCCCN)C(=O)N[C@@H](Cc1ccccc1)C(=O)N[C@@H](CC(N)=O)C(=O)N[C@@H](CC(C)C)C(=O)N1CCC[C@H]1C(=O)N[C@@H](CC(C)C)C(=O)NCC(=O)N[C@@H](CC(N)=O)C(=O)N[C@@H](C)C(=O)N[C@@H](CCCCN)C(=O)N[C@@H](CCCCN)C(=O)N1CCC[C@H]1C(N)=O) [Peptide 9: Palm-Lys-Phe-Asn-Leu-Pro-Leu-Gly-Asn-Ala-Lys-Lys-Pro-NH2] | 

The next lines start with the molecule.

Row | Molecule | FGFR1 Kinase % Inhibition (human FGFR1 kinase) [%] | FGFR3 Kinase % Inhibition (FGFR3 Kinase) [%] | FGFR4 Kinase % Inhibition (FGFR4 Kinase) [%] | FGFR2 Kinase % Inhibition (FGFR2 Kinase) [%]
5 | Palm-Lys-Phe-Asn-Leu-Pro-Leu-Ala-Asn-Tyr-Lys-Lys-Pro-NH2 (Palmitoyl-KFNLPLANYKKP-NH2; SMILES CCCCCCCCCCCCCCCC(=O)N[C@@H](CCCCN)C(=O)N[C@@H](Cc1ccccc1)C(=O)N[C@@H](CC(N)=O)C(=O)N[C@@H](CC(C)C)C(=O)N1CCC[C@H]1C(=O)N[C@@H](CC(C)C)C(=O)N[C@@H](C)C(=O)N[C@@H](CC(N)=O)C(=O)N[C@@H](Cc1ccc(O)cc1)C(=O)N[C@@H](CCCCN)C(=O)N[C@@H](CCCCN)C(=O)N1CCC[C@H]1C(N)=O) [Peptide 7] |  |  |  | 98.4
6 | Palm-Lys-Phe-Ala-Leu-Pro-Leu-Gly-Asn-Tyr-Lys-Lys-Pro-NH2 (Palmitoyl-KFALPLGNYKKP-NH2; SMILES CCCCCCCCCCCCCCCC(=O)N[C@@H](CCCCN)C(=O)N[C@@H](Cc1ccccc1)C(=O)N[C@@H](C)C(=O)N[C@@H](CC(C)C)C(=O)N1CCC[C@H]1C(=O)N[C@@H](CC(C)C)C(=O)NCC(=O)N[C@@H](CC(N)=O)C(=O)N[C@@H](Cc1ccc(O)cc1)C(=O)N[C@@H](CCCCN)C(=O)N[C@@H](CCCCN)C(=O)N1CCC[C@H]1C(N)=O) [Peptide 3] |  |  |  | 98.7
7 | Palm-Lys-Phe-Asn-Leu-Ala-Leu-Gly-Asn-Tyr-Lys-Lys-Pro-NH2 (Palmitoyl-KFNLALGNYKKP-NH2; SMILES CCCCCCCCCCCCCCCC(=O)N[C@@H](CCCCN)C(=O)N[C@@H](Cc1ccccc1)C(=O)N[C@@H](CC(N)=O)C(=O)N[C@@H](CC(C)C)C(=O)N[C@@H](C)C(=O)N[C@@H](CC(C)C)C(=O)NCC(=O)N[C@@H](CC(N)=O)C(=O)N[C@@H](Cc1ccc(O)cc1)C(=O)N[C@@H](CCCCN)C(=O)N[C@@H](CCCCN)C(=O)N1CCC[C@H]1C(N)=O) [Peptide 5] |  |  |  | 91.1
8 | Palm-Lys-Ala-Asn-Leu-Pro-Leu-Gly-Asn-Tyr-Lys-Lys-Pro-NH2 (Palmitoyl-KANLPLGNYKKP-NH2; SMILES CCCCCCCCCCCCCCCC(=O)N[C@@H](CCCCN)C(=O)N[C@@H](C)C(=O)N[C@@H](CC(N)=O)C(=O)N[C@@H](CC(C)C)C(=O)N1CCC[C@H]1C(=O)N[C@@H](CC(C)C)C(=O)NCC(=O)N[C@@H](CC(N)=O)C(=O)N[C@@H](Cc1ccc(O)cc1)C(=O)N[C@@H](CCCCN)C(=O)N[C@@H](CCCCN)C(=O)N1CCC[C@H]1C(N)=O) [Peptide 2] |  |  |  | 96.3
9 | Palm-Lys-Phe-Asn-Ala-Pro-Leu-Gly-Asn-Tyr-Lys-Lys-Pro-NH2 (Palmitoyl-KFNAPLGNYKKP-NH2; SMILES CCCCCCCCCCCCCCCC(=O)N[C@@H](CCCCN)C(=O)N[C@@H](Cc1ccccc1)C(=O)N[C@@H](CC(N)=O)C(=O)N[C@@H](C)C(=O)N1CCC[C@H]1C(=O)N[C@@H](CC(C)C)C(=O)NCC(=O)N[C@@H](CC(N)=O)C(=O)N[C@@H](Cc1ccc(O)cc1)C(=O)N[C@@H](CCCCN)C(=O)N[C@@H](CCCCN)C(=O)N1CCC[C@H]1C(N)=O) [Peptide 4] |  |  |  | 87.5
10 | Palm-Lys-Phe-Asn-Leu-Pro-Ala-Gly-Asn-Tyr-Lys-Lys-Pro-NH2 (Palmitoyl-KFNLPAGNYKKP-NH2; SMILES CCCCCCCCCCCCCCCC(=O)N[C@@H](CCCCN)C(=O)N[C@@H](Cc1ccccc1)C(=O)N[C@@H](CC(N)=O)C(=O)N[C@@H](CC(C)C)C(=O)N1CCC[C@H]1C(=O)N[C@@H](C)C(=O)NCC(=O)N[C@@H](CC(N)=O)C(=O)N[C@@H](Cc1ccc(O)cc1)C(=O)N[C@@H](CCCCN)C(=O)N[C@@H](CCCCN)C(=O)N1CCC[C@H]1C(N)=O) [Peptide 6] |  |  |  | 98.8
11 | Palmitoyl-KANLPLGNYKKP-NH2 (SMILES CCCCCCCCCCCCCCCC(=O)N[C@@H](CCCCN)C(=O)N[C@@H](C)C(=O)N[C@@H](CC(N)=O)C(=O)N[C@@H](CC(C)C)C(=O)N1CCC[C@H]1C(=O)N[C@@H](CC(C)C)C(=O)NCC(=O)N[C@@H](CC(N)=O)C(=O)N[C@@H](Cc1ccc(O)cc1)C(=O)N[C@@H](CCCCN)C(=O)N[C@@H](CCCCN)C(=O)N1CCC[C@H]1C(N)=O) [Peptide 2: Palm-Lys-Ala-Asn-Leu-Pro-Leu-Gly-Asn-Tyr-Lys-Lys-Pro-NH2] | 0 | 38.8 | 96.4 | 
12 | Palmitoyl-KFNLPLGAYKKP-NH2 (SMILES CCCCCCCCCCCCCCCC(=O)N[C@@H](CCCCN)C(=O)N[C@@H](Cc1ccccc1)C(=O)N[C@@H](CC(N)=O)C(=O)N[C@@H](CC(C)C)C(=O)N1CCC[C@H]1C(=O)N[C@@H](CC(C)C)C(=O)NCC(=O)N[C@@H](C)C(=O)N[C@@H](Cc1ccc(O)cc1)C(=O)N[C@@H](CCCCN)C(=O)N[C@@H](CCCCN)C(=O)N1CCC[C@H]1C(N)=O) [Peptide 8: Palm-Lys-Phe-Asn-Leu-Pro-Leu-Gly-Ala-Tyr-Lys-Lys-Pro-NH2] | 0 | 87.9 | 89.5 | 
